The results in this text go back to US20030068675, “Position dependent recognition of GNN nucleotide triplets by zinc fingers” (published 2003).

Holding throughout (test): EMSA
Details in all cases: tags: MBP fusion
On the technique in general: A gel shift assay detects complexes by their altered migration in electrophoresis.

One data set addresses T1, ZFP SBS#1259 (synthetic).
T1 chain: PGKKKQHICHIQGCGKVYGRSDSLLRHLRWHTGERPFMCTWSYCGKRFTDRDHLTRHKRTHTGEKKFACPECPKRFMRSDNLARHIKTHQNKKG
A digest of the protocol:
(§1)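 Purified ZFP was titrated against labeled double-stranded target (1 nM or lower, at least 10-fold below expected Kd) carrying the natural binding site with flanks. Binding buffer was 10 mM Tris pH 7.5, 100 mM KCl, 1 mM MgCl2, 0.1 mM ZnCl2, 5 mM DTT, 10% glycerol, 0.02% BSA, with equilibration for at least 45 min. Bound and free target were separated on a 10% polyacrylamide gel.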

The target in another data set is T2, ZFP SBS#1260 (synthetic).
T2 chain: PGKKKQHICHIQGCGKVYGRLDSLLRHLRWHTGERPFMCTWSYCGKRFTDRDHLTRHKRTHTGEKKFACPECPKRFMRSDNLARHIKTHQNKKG
A digest of the protocol:
as §1

A further data set addresses T3, ZFP SBS#1269 (synthetic).
T3 chain: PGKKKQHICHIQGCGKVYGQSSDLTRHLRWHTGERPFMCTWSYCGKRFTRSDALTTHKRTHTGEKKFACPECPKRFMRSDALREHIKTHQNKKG
In outline:
as §1

The target in the next data set is T4, ZFP SBS#1268 (synthetic).
T4 chain: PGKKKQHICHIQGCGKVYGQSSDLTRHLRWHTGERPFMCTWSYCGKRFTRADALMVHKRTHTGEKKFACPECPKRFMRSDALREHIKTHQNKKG
A digest of the protocol:
as §1

The target of a further data set is T5, ZFP SBS#1265 (synthetic).
T5 chain: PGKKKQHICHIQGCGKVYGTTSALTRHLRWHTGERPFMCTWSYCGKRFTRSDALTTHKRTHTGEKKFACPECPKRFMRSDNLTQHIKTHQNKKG
A digest of the protocol: as §1

For the next data set, the target named is T6, ZFP SBS#1264 (synthetic).
T6 chain: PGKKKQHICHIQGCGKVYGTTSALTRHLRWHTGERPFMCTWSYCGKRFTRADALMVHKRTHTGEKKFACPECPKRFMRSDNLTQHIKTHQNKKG
In outline:
as §1

The target of a further data set is T7, ZFP SBS#1293 (synthetic).
T7 chain: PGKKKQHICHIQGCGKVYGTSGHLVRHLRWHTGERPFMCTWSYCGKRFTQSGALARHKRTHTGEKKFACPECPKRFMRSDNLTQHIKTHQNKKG
In outline: as §1

A further data set has as its target ZFP SBS#1294 (synthetic). In outline: as §1
For the next data set, the target named is T8, ZFP SBS#1266 (synthetic).
T8 chain: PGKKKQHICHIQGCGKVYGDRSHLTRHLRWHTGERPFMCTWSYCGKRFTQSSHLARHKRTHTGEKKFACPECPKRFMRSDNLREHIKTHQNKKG
In outline:
as §1

The next data set has as its target T9, ZFP SBS#1288 (synthetic).
T9 chain: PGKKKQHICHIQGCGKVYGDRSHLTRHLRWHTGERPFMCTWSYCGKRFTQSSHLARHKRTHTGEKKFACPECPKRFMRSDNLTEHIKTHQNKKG
A digest of the protocol: as §1

A further data set addresses ZFP SBS#1275 (synthetic). In outline:
as §1

The target in another data set is ZFP SBS#1274 (synthetic). In outline:
as §1

The target of another data set is ZFP SBS#1289 (synthetic). A digest of the protocol: as §1
The target in a further data set is ZFP SBS#1267 (synthetic). A digest of the protocol: as §1
In another data set the target is T10, ZFP SBS#1271 (synthetic).
T10 chain: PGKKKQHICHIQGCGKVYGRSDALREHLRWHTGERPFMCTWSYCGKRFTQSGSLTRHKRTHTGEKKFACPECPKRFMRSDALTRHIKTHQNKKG
A digest of the protocol: as §1

In a further data set the target is T11, ZFP SBS#1241 (synthetic).
T11 chain: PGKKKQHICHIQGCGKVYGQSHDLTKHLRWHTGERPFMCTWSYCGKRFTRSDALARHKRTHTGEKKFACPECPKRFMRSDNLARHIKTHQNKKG
A digest of the protocol: as §1

For another data set, the target named is ZFP SBS#1279 (synthetic). In outline:
as §1

A further data set addresses T12, ZFP SBS#1292 (synthetic).
T12 chain: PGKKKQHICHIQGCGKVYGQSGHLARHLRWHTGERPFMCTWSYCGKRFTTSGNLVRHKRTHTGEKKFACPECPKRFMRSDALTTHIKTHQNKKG
A digest of the protocol:
as §1

A further data set has as its target ZFP SBS#1270 (synthetic). A digest of the protocol: as §1
For the next data set, the target named is T13, ZFP SBS#541 (synthetic, UniProt P08047).
T13 chain: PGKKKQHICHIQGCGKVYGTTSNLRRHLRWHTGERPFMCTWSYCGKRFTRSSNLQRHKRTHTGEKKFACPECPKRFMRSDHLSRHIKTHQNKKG
A digest of the protocol:
as §1

For the next data set, the target named is T14, ZFP SBS#1258 (synthetic, UniProt P08047).
T14 chain: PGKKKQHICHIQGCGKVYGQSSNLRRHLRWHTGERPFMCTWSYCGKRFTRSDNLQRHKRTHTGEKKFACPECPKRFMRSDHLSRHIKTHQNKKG
A digest of the protocol:
as §1

Another data set addresses T15, ZFP SBS#1257 (synthetic, UniProt P08047).
T15 chain: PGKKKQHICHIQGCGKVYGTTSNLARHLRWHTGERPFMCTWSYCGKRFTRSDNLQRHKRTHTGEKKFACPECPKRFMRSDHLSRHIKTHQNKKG
A digest of the protocol: as §1

A further data set concerns the target ZFP SBS#1236 (synthetic). In outline: as §1
In a further data set the target is ZFP SBS#1234 (synthetic). A digest of the protocol: as §1
For another data set, the target named is T16, ZFP SBS#1278 (synthetic).
T16 chain: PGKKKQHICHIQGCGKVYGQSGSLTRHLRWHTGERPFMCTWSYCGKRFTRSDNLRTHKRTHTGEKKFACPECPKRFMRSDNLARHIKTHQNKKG
A digest of the protocol: as §1

Another data set has as its target T17, ZFP SBS#504 (synthetic).
T17 chain: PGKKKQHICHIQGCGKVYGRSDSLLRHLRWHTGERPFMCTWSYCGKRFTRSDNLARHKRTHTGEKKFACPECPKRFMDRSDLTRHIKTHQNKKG
In outline: as §1

The target of another data set is T18, ZFP SBS#503 (synthetic).
T18 chain: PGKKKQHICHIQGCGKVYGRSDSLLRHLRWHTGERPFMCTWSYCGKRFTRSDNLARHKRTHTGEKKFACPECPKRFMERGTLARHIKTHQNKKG
A digest of the protocol: as §1

In a further data set the target is T19, ZFP SBS#440 (synthetic).
T19 chain: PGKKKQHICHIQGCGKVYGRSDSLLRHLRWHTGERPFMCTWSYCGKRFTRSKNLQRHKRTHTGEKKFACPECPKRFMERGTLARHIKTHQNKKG
A digest of the protocol: as §1

A further data set has as its target T20, ZFP SBS#505 (synthetic).
T20 chain: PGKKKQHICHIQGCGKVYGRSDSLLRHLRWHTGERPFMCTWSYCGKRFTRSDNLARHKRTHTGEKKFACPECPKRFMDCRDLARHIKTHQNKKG
In outline:
as §1

Another data set has as its target T21, ZFP SBS#1287 (synthetic).
T21 chain: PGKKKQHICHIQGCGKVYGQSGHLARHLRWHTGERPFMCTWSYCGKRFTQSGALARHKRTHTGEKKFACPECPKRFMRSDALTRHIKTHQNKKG
A digest of the protocol:
as §1

Another data set deals with T22, ZFP SBS#1282 (synthetic).
T22 chain: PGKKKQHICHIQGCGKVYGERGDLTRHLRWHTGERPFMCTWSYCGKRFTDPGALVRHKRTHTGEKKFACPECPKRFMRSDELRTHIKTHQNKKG
In outline:
as §1

For a further data set, the target named is T23, ZFP SBS#1277 (synthetic).
T23 chain: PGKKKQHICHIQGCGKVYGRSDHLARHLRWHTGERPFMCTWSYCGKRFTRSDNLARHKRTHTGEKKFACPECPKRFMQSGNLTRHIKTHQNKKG
In outline:
as §1

For a further data set, the target named is ZFP SBS#1291 (synthetic). A digest of the protocol: as §1
Another data set has as its target ZFP SBS#1290 (synthetic). A digest of the protocol:
as §1

ZFP SBS#1274 (synthetic), sequence (chain, as listed by the source): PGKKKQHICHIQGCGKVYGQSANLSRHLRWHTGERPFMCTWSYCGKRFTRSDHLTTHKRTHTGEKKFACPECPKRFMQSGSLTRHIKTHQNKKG
ZFP SBS#1289 (synthetic), sequence (chain, as listed by the source): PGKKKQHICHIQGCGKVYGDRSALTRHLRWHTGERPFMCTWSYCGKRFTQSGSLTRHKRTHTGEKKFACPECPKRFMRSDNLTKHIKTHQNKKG
ZFP SBS#1291 (synthetic), sequence (chain, as listed by the source): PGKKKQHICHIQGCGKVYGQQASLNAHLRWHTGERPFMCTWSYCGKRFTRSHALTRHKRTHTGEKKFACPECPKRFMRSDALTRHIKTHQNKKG
ZFP SBS#1270 (synthetic), sequence (chain, as listed by the source): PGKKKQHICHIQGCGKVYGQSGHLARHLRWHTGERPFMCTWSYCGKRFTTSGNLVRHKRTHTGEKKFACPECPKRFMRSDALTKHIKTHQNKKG
ZFP SBS#1267 (synthetic), sequence (chain, as listed by the source): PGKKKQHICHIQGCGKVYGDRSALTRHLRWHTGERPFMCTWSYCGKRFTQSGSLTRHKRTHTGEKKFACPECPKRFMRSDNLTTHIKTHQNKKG
ZFP SBS#1275 (synthetic), sequence (chain, as listed by the source): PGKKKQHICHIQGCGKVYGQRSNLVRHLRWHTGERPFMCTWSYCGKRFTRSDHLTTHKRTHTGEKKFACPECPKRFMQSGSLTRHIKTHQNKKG
ZFP SBS#1234 (synthetic), sequence (chain, as listed by the source): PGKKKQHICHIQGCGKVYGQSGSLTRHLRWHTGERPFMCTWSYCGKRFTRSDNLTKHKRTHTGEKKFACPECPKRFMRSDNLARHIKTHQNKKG
ZFP SBS#1236 (synthetic), sequence (chain, as listed by the source): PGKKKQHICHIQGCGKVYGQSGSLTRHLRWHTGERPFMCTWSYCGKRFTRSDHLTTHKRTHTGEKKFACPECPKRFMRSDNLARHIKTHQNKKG
ZFP SBS#1294 (synthetic), sequence (chain, as listed by the source): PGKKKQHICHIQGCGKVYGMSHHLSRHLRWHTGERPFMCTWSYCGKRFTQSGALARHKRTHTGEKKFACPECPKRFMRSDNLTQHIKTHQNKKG
ZFP SBS#1290 (synthetic), sequence (chain, as listed by the source): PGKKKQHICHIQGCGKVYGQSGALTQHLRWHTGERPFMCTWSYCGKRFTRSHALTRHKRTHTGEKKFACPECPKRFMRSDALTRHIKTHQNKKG

B1: GAGTGTGTG (dsDNA)
DNA 1: GAGTGTGTG
DNA 2: CACACACTC
For orientation: Kd means the equilibrium constant for the complex coming apart. Lower therefore signals higher affinity. As to B1, the Kd in the data set with ZFP SBS#1259 came to 1.5 nM; with ZFP SBS#1260, 1.8 nM.

B2: CTGTTGGCT (dsDNA)
DNA 1: CTGTTGGCT
DNA 2: AGCCAACAG
In the case of B2, the equilibrium dissociation constant (Kd) in the data set with ZFP SBS#1269 came to 12.3 nM; with ZFP SBS#1268 it was 1.52 nM.

B3: AAGTTGGTT (dsDNA)
DNA 1: AAGTTGGTT
DNA 2: AACCAACTT
Regarding B3, the values for the Kd with ZFP SBS#1265 and with ZFP SBS#1264 were 0.077 nM and 0.21 nM, respectively.

B4: AAGGTAGGT (dsDNA)
DNA 1: AAGGTAGGT
DNA 2: ACCTACCTT
Regarding B4, the equilibrium dissociation constant (Kd) in the data set with ZFP SBS#1293 was 0.457 nM; in the data set with ZFP SBS#1294, 2.75 nM.

B5: CAGGGTGGC (dsDNA)
DNA 1: CAGGGTGGC
DNA 2: GCCACCCTG
For the molecule B5, the dissociation constant Kd in the data set with ZFP SBS#1266 turned out to be 6.1 nM; with ZFP SBS#1288 it was 4.1 nM.

B6: GCATGGGAA (dsDNA)
DNA 1: GCATGGGAA
DNA 2: TTCCCATGC
For B6, the Kd in the data set with ZFP SBS#1275 was 0.326 nM; in the data set with ZFP SBS#1274, 0.306 nM.

B7: TAGGCAGTC (dsDNA)
DNA 1: TAGGCAGTC
DNA 2: GACTGCCTA
With B7, the Kd turned out to be 1.37 nM with ZFP SBS#1289 and 6 nM with ZFP SBS#1267.

B8: GTGGCACTG (dsDNA)
DNA 1: GTGGCACTG
DNA 2: CAGTGCCAC
Molecule B8 yielded a Kd with ZFP SBS#1271 of 0.915 nM.

B9: GAGGTGTCA (dsDNA)
DNA 1: GAGGTGTCA
DNA 2: TGACACCTC
For B9, the dissociation constant Kd with ZFP SBS#1241 stood at 0.027 nM; with ZFP SBS#1279, 0.025 nM.

B10: TTGGATGGA (dsDNA)
DNA 1: TTGGATGGA
DNA 2: TCCATCCAA
Turning to B10, the dissociation constant (Kd) in the data set with ZFP SBS#1292 worked out at 4.12 nM; in the data set with ZFP SBS#1270 it was 0.4 nM.

B11: GGGGAGGAT (dsDNA)
DNA 1: GGGGAGGAT
DNA 2: ATCCTCCCC
For B11, the Kd is 3 nM in the data set with ZFP SBS#541, 2 nM with ZFP SBS#1258 and 1 nM with ZFP SBS#1257.

B12: GAGTAGGCA (dsDNA)
DNA 1: GAGTAGGCA
DNA 2: TGCCTACTC
In the case of B12, the equilibrium dissociation constant (Kd) in the data set with ZFP SBS#1236 amounted to 0.065 nM; with ZFP SBS#1234, 0.101 nM; in the data set with ZFP SBS#1278 it was 0.019 nM.

B13: GCCGAGGTGC (dsDNA)
DNA 1: GCCGAGGTGC
DNA 2: GCACCTCGGC
On to B13, for which the Kd with ZFP SBS#504 was 25 nM; in the data set with ZFP SBS#503, 50 nM; with ZFP SBS#440, 40 nM; with ZFP SBS#505, 65 nM.

B14: GTGGTAGGA (dsDNA)
DNA 1: GTGGTAGGA
DNA 2: TCCTACCAC
As to B14, the Kd with ZFP SBS#1287 is 0.152 nM.

B15: TCGGTCGCC (dsDNA)
DNA 1: TCGGTCGCC
DNA 2: GGCGACCGA
Take B15: the Kd in the data set with ZFP SBS#1282 is 74.1 nM.

B16: GAAGAGGGG (dsDNA)
DNA 1: GAAGAGGGG
DNA 2: CCCCTCTTC
As to B16, the affinity with ZFP SBS#1277, expressed as Kd, was 0.421 nM. This lies in the sub-nanomolar range.

B17: GTGGTGATA (dsDNA)
DNA 1: GTGGTGATA
DNA 2: TATCACCAC
On to B17, for which the figures for the dissociation constant Kd with ZFP SBS#1291 and with ZFP SBS#1290 were 20.6 nM and 24.1 nM, respectively.
